Experimental data as given in patent publication US6509383.

Tests used:
[1] = target: purified calf thymus DNA polymerase δ (calf (bovine)) (UniProt P28339); experiment: cell-based or functional assay
[2] = target: his-tagged Drosophila PCNA (UniProt P17917)
Chain of his-tagged Drosophila PCNA (P17917 whole entry): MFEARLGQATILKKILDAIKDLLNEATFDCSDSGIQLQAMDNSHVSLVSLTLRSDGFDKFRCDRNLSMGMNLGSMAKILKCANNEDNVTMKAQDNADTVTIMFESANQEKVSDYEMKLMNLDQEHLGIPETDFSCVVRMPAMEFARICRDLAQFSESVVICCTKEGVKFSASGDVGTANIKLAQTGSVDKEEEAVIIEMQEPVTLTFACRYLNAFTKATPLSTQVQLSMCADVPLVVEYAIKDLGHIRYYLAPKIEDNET

Chain of purified calf thymus DNA polymerase δ (calf (bovine)) (P28339 whole entry, stated change not applied): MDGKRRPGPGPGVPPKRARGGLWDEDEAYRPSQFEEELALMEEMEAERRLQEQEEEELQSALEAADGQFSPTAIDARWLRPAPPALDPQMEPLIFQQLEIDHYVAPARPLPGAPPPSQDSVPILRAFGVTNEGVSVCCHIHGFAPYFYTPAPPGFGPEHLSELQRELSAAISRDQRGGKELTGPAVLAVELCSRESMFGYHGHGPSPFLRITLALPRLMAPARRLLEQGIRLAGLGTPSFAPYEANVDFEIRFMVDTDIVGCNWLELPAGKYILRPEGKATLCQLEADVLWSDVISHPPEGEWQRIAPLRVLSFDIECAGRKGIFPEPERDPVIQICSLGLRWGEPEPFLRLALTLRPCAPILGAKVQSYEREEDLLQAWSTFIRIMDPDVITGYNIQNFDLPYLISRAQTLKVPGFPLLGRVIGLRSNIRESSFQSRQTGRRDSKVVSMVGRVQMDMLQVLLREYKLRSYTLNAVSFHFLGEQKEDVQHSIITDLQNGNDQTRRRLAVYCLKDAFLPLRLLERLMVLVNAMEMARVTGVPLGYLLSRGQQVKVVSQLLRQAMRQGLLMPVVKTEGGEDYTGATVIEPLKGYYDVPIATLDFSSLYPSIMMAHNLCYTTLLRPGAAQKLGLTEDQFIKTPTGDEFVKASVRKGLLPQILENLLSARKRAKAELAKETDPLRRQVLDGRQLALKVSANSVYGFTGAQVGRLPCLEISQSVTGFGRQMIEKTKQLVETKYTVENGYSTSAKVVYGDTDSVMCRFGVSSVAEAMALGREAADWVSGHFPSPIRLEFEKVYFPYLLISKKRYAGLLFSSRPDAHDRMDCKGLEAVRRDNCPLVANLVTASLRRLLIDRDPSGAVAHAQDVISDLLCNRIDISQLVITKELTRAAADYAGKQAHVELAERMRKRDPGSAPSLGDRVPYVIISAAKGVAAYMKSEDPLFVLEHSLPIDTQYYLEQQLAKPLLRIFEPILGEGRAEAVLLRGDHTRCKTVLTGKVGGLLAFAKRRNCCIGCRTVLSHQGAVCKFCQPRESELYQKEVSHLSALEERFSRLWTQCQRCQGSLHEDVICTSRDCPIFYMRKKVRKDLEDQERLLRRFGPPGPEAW

solution assay of pol δ: extended DNA synthesis beyond model abasic template lesions, compared with wild-type PCNA (phosphorimager) [1] [%]	Substance	in situ DNA polymerase assay on Ni2+-IDA-paper ([alpha-32P]dGTP incorporation, PhosphorImager) [2]
40	NH2-terminally his-tagged E^85>K mutant human PCNA (from UniProt P12004 1-261)	–
–	purified calf thymus DNA polymerase δ	almost no reactivity was observed corresponding to the spot of Drosophila PCNA
